Reference: the supplement of paper PMC11246515
± gives the standard deviation of the averaged measurements.

Assay: total protein half-life in vivo (active degradation + dilution); higher = more stable protein
[1] = E. coli NCM3722 delta-clpP delta-lon delta-hslV, growth: N-lim chemostat, doubling time 6 h
[2] = E. coli NCM3722 delta-clpP, growth: N-lim chemostat, doubling time 6 h
[3] = E. coli NCM3722 delta-hslV, growth: N-lim chemostat, doubling time 6 h
[4] = E. coli NCM3722 delta-lon, growth: N-lim chemostat, doubling time 6 h
[5] = E. coli NCM3722 delta-smpB, growth: N-lim chemostat, doubling time 6 h
[6] = wild type E. coli NCM3722, growth: C-lim chemostat, doubling time 3 h
[7] = wild type E. coli NCM3722, growth: C-lim chemostat, doubling time 6 h
[8] = wild type E. coli NCM3722, growth: C-lim chemostat, doubling time 12 h
[9] = wild type E. coli NCM3722, growth: N-lim chemostat, doubling time 6 h
[10] = wild type E. coli NCM3722, growth: N-lim chemostat, doubling time 12 h
[11] = wild type E. coli NCM3722, growth: P-lim chemostat, doubling time 6 h
[12] = wild type E. coli NCM3722, growth: P-lim chemostat, doubling time 12 h

Sequence	total protein half-life in vivo [1]	total protein half-life in vivo [2]	total protein half-life in vivo [3]	total protein half-life in vivo [4]	total protein half-life in vivo [5]	total protein half-life in vivo [6]	total protein half-life in vivo [7]	total protein half-life in vivo [8]	total protein half-life in vivo [9]	total protein half-life in vivo [10]	total protein half-life in vivo [11]	total protein half-life in vivo [12]
MVWLANPERYGQMQYRYCGKSGLRLPALSLGLWHNFGHVNALESQRAILRKAFDLGITHFDLANNYGPPPGSAEENFGRLLREDFAAYRDELIISTKAGYDMWPGPYGSGGSRKYLLASLDQSLKRMGLEYVDIFYSHRVDENTPMEETASALAHAVQSGKALYVGISSYSPERTQKMVELLREWKIPLLIHQPSYNLLNRWVDKSGLLDTLQNNGVGCIAFTPLAQGLLTGKYLNGIPQDSRMHREGNKVRGLTPKMLTEANLNSLRLLNEMAQQRGQSMAQMALSWLLKDDRVTSVLIGASRAEQLEENVQALNNLTFSTKELAQIDQHIADGELNLWQASSDK	5.44 ± 0.59 h	5.3 ± 0.24 h	4.93 ± 0.43 h	5.69 ± 0.77 h	4.18 ± 0.68 h	3.2 ± 0.16 h	6.28 ± 0.24 h	11.4 ± 1.3 h	5.12 ± 0.82 h	8.176 ± 0.024 h	6.24 ± 0.32 h	12.4 ± 1.1 h
MYDFNLVLLLLQQMCVFLVIAWLMSKTPLFIPLMQVTVRLPHKFLCYIVFSIFCIMGTWFGLHIDDSIANTRAIGAVMGGLLGGPVVGGLVGLTGGLHRYSMGGMTALSCMISTIVEGLLGGLVHSILIRRGRTDKVFNPITAGAVTFVAEMVQMLIILAIARPYEDAVRLVSNIAAPMMVTNTVGAALFMRILLDKRAMFEKYTSAFSATALKVAASTEGILRQGFNEVNSMKVAQVLYQELDIGAVAITDREKLLAFTGIGDDHHLPGKPISSTYTLKAIETGEVVYADGNEVPYRCSLHPQCKLGSTLVIPLRGENQRVMGTIKLYEAKNRLFSSINRTLGEGIAQLLSAQILAGQYERQKAMLTQSEIKLLHAQVNPHFLFNALNTIKAVIRRDSEQASQLVQYLSTFFRKNLKRPSEFVTLADEIEHVNAYLQIEKARFQSRLQVNIAIPQELSQQQLPAFTLQPIVENAIKHGTSQLLDTGRVAISARREGQHLMLEIEDNAGLYQPVTNASGLGMNLVDKRLRERFGDDYGISVACEPDSYTRITLRLPWRDEA [P0AD14]	–	–	–	–	–	2.82 ± 0.28 h	5.37 ± 0.45 h	10.9 ± 0.79 h	–	–	6.05 ± 0.33 h	11.1 ± 1.1 h
MSMIKSYAAKEAGGELEVYEYDPGELRPQDVEVQVDYCGICHSDLSMIDNEWGFSQYPLVAGHEVIGRVVALGSAAQDKGLQVGQRVGIGWTARSCGHCDACISGNQINCEQGAVPTIMNRGGFAEKLRADWQWVIPLPENIDIESAGPLLCGGITVFKPLLMHHITATSRVGVIGIGGLGHIAIKLLHAMGCEVTAFSSNPAKEQEVLAMGADKVVNSRDPQALKALAGQFDLIINTVNVSLDWQPYFEALTYGGNFHTVGAVLTPLSVPAFTLIAGDRSVSGSATGTPYELRKLMRFAARSKVAPTTELFPMSKINDAIQHVRDGKARYRVVLKADF	5.793 ± 0.025 h	5.68 ± 0.17 h	–	5.65 ± 0.11 h	5.22 ± 1.4 h	2.17 ± 0.36 h	6.43 ± 1.3 h	11 ± 1.4 h	5.42 ± 0.12 h	10.8 ± 0.24 h	5.84 ± 0.26 h	11.9 ± 0.73 h
MVPSTFSRLKAARCLPVVLAALIFAGCGTHTPDQSTAYMQGTAQADSAFYLQQMQQSSDDTRINWQLLAIRALVKEGKTGQAVELFNQLPQELNDAQRREKTLLAVEIKLAQKDFAGAQNLLAKITPADLEQNQQARYWQAKIDASQGRPSIDLLRALIAQEPLLGAKEKQQNIDATWQALSSMTQEQANTLVINADENILQGWLDLQRVWFDNRNDPDMMKAGIADWQKRYPNNPGAKMLPTQLVNVKAFKPASTNKIALLLPLNGQAAVFGRTIQQGFEAAKNIGTQPVAAQVAAAPAADVAEQPQPQTVDGVASPAQASVSDLTGEQPAAQPVPVSAPATSTAAVSAPANPSAELKIYDTSSQPLSQILSQVQQDGASIVVGPLLKNNVEELLKSNTPLNVLALNQPENIENRVNICYFALSPEDEARDAARHIRDQGKQAPLVLIPRSSLGDRVANAFAQEWQKLGGGTVLQQKFGSTSELRAGVNGGSGIALTGSPITLRATTDSGMTTNNPTLQTTPTDDQFTNNGGRVDAVYIVATPGEIAFIKPMIAMRNGSQSGATLYASSRSAQGTAGPDFRLEMEGLQYSEIPMLAGGNLPLMQQALSAVNNDYSLARMYAMGVDAWSLANHFSQMRQVQGFEINGNTGSLTANPDCVINRNLSWLQYQQGQVVPVS	5.639 ± 0.023 h	5.812 ± 0.034 h	5.89 ± 0.37 h	6.49 ± 0.16 h	6.45 ± 0.83 h	3.11 ± 0.16 h	5.614 ± 0.025 h	11.2 ± 1 h	6.03 ± 0.11 h	13.1 ± 1.8 h	5.91 ± 0.45 h	11.5 ± 0.52 h
MAHQLKLLKDDFFASDQQAVAVADRYPQDVFAEHTHDFCELVIVWRGNGLHVLNDRPYRITRGDLFYIHADDKHSYASVNDLVLQNIIYCPERLKLNLDWQGAIPGFNASAGQPHWRLGSMGMAQARQVIGQLEHESSQHVPFANEMAELLFGQLVMLLNRHRYTSDSLPPTSSETLLDKLITRLAASLKSPFALDKFCDEASCSERVLRQQFRQQTGMTINQYLRQVRVCHAQYLLQHSRLLISDISTECGFEDSNYFSVVFTRETGMTPSQWRHLNSQKD	–	–	–	–	–	1.63 h	–	–	–	–	–	–
MTDKTSLSYKDAGVDIDAGNALVGRIKGVVKKTRRPEVMGGLGGFGALCALPQKYREPVLVSGTDGVGTKLRLAMDLKRHDTIGIDLVAMCVNDLVVQGAEPLFFLDYYATGKLDVDTASAVISGIAEGCLQSGCSLVGGETAEMPGMYHGEDYDVAGFCVGVVEKSEIIDGSKVSDGDVLIALGSSGPHSNGYSLVRKILEVSGCDPQTTELDGKPLADHLLAPTRIYVKSVLELIEKVDVHAIAHLTGGGFWENIPRVLPDNTQAVIDESSWQWPEVFNWLQTAGNVEHHEMYRTFNCGVGMIIALPAPEVDKALALLNANGENAWKIGIIKASDSEQRVVIE	4.99 ± 0.091 h	4.62 ± 1 h	4.47 ± 0.064 h	5.23 ± 0.1 h	4.258 ± 0.021 h	2.94 ± 0.24 h	5.66 ± 0.063 h	11.1 ± 0.42 h	4.53 ± 0.17 h	7.47 ± 0.71 h	4.7 ± 0.29 h	9.07 ± 2 h
MSDTLLTLRDVHINFPARKNWLGKTTEHVHAINGIDLQIRRGETLGIVGESGCGKSTLAQLLMGMLQPSHGQYIRSGSQRIMQMVFQDPLSSLNPRLPVWRIITEPLWIAKRSSEQQRRALAEELAVQVGIRPEYLDRLPHAFSGGQRQRIAIARALSSQPDVIVLDEPTSALDISVQAQILNLLVTLQENHGLTYVLISHNVSVIRHMSDRVAVMYLGQIVELGDAQQVLTAPAHPYTRLLLDSLPAIDKPLEEEWALRKTDLPGNRTLPQGCFFYERCPLATHGCEVRQSLAIREDGRELRCWRAL	–	3.45 h	–	–	4.17 ± 0.074 h	1.74 h	4.55 h	–	4.44 h	6.31 ± 0.42 h	–	–
MKMTKLATLFLTATLSLASGAALAADSGAQTNNGQANAAADAGQVAPDARENVAPNNVDNNGVNTGSGGTMLHSDGSSMNNDGMTKDEEHKNTMCKDGRCPDINKKVQTGDGINNDVDTKTDGTTQ [P0AAV6]	4.05 h	4.92 ± 2.1 h	5.44 ± 0.35 h	6.63 ± 0.59 h	3.73 ± 1.6 h	1.7 h	5.24 h	4.86 h	4.78 h	10.7 ± 3.5 h	5.84 h	10.2 ± 1.1 h
MKTIFRYILFLALYSCCNTVSAYTSFIVGNNAGVDNYRGPSTAAQMTFNYTSTASNLVFYKPTQLGPTGVKMYWSYLDTGTGGGILYCNTSGRANPGPITIENAMVYSGKDYGGHKLFNTSVPGLYYTMLISRVWSAYDTITDIQSPGIYIGDPSNQEFFFSVTDSDLQTKGCNKADDYDKFWAIGGIVHNITVEFYTDTNFDPTLNQQVQLSSSSNYLYSFKAYSPGTKVVDHSNHIYVNFTLNNVKLTLPTCFTSILTGPSVNGSTVRMGEYSSGTIKNGASPVPFDISLQNCIRVRNIETKLVTGKVGTQNTQLLGNTLTGSTAAKGVGVLIEGLATSKNPLMTLKPNDTNSVYIDYETEDDTSDGVYPNQGNGTSQPLHFQATLKQDGNIAIEPGEFKATSTFQVTYP	–	–	–	–	4.93 ± 0.34 h	–	–	4.96 h	–	–	–	–
MSKPAITLWSDAHFFSPYVLSAWVALQEKGLSFHIKTIDLDSGEHLQPTWQGYGQTRRVPLLQIDDFELSESSAIAEYLEDRFAPPTWERIYPLDLENRARARQIQAWLRSDLMPIREERPTDVVFAGAKKAPLTAEGKASAEKLFAMAEHLLVLGQPNLFGEWCIADTDLALMINRLVLHGDEVPERLVDYATFQWQRASVQRFIALSAKQSG	4.94 ± 0.39 h	5.5 ± 1.7 h	4.804 ± 0.025 h	5.18 ± 0.9 h	4.79 ± 0.39 h	2.97 ± 0.081 h	5.9 ± 0.35 h	9.65 ± 1.6 h	4.86 ± 0.41 h	8.65 ± 0.19 h	5.764 ± 0.044 h	12.5 ± 0.95 h
MSRLSPVNQARWARFRHNRRGYWSLWIFLVLFGLSLCSELIANDKPLLVRYDGSWYFPLLKNYSESDFGGPLASQADYQDPWLKQRLENNGWVLWAPIRFGATSINFATNKPFPSPPSRQNWLGTDANGGDVLARILYGTRISVLFGLMLTLCSSVMGVLAGALQGYYGGKVDLWGQRFIEVWSGMPTLFLIILLSSVVQPNFWWLLAITVLFGWMSLVGVVRAEFLRTRNFDYIRAAQALGVSDRSIILRHMLPNAMVATLTFLPFILCSSITTLTSLDFLGFGLPLGSPSLGELLLQGKNNLQAPWLGITAFLSVAILLSLLIFIGEAVRDAFDPNKAV	6 h	6.1 h	–	–	5.43 ± 0.61 h	–	–	–	6.44 h	–	–	13.2 h
MKITKITTYRLPPRWMFLKIETDEGVVGWGEPVIEGRARTVEAAVHELGDYLIGQDPSRINDLWQVMYRAGFYRGGPILMSAIAGIDQALWDIKGKVLNAPVWQLMGGLVRDKIKAYSWVGGDRPADVIDGIKTLREIGFDTFKLNGCEELGLIDNSRAVDAAVNTVAQIREAFGNQIEFGLDFHGRVSAPMAKVLIKELEPYRPLFIEEPVLAEQAEYYPKLAAQTHIPLAAGERMFSRFDFKRVLEAGGISILQPDLSHAGGITECYKIAGMAEAYDVTLAPHCPLGPIALAACLHIDFVSYNAVLQEQSMGIHYNKGAELLDFVKNKEDFSMVGGFFKPLTKPGLGVEIDEAKVIEFSKNAPDWRNPLWRHEDNSVAEW [Q6BF17]	3.02 ± 0.17 h	1.75 ± 0.17 h	–	–	1.27 ± 0.18 h	2.67 ± 0.21 h	3.47 ± 0.4 h	5.79 ± 0.88 h	2.5 h	1.84 h	4.36 ± 0.18 h	7.25 ± 0.96 h
MQRRDFLKYSVALGVASALPLWSRAVFAAERPTLPIPDLLTTDARNRIQLTIGAGQSTFGGKTATTWGYNGNLLGPAVKLQRGKAVTVDIYNQLTEETTLHWHGLEVPGEVDGGPQGIIPPGGKRSVTLNVDQPAATCWFHPHQHGKTGRQVAMGLAGLVVIEDDEILKLMLPKQWGIDDVPVIVQDKKFSADGQIDYQLDVMTAAVGWFGDTLLTNGAIYPQHAAPRGWLRLRLLNGCNARSLNFATSDNRPLYVIASDGGLLPEPVKVSELPVLMGERFEVLVEVNDNKPFDLVTLPVSQMGMAIAPFDKPHPVMRIQPIAISASGALPDTLSSLPALPSLEGLTVRKLQLSMDPMLDMMGMQMLMEKYGDQAMAGMDHSQMMGHMGHGNMNHMNHGGKFDFHHANKINGQAFDMNKPMFAAAKGQYERWVISGVGDMMLHPFHIHGTQFRILSENGKPPAAHRAGWKDTVKVEGNVSEVLVKFNHDAPKEHAYMAHCHLLEHEDTGMMLGFTV	–	5.63 ± 0.14 h	6.68 ± 0.32 h	6.57 ± 0.91 h	5.62 ± 0.1 h	2.84 ± 0.38 h	5.977 ± 0.041 h	11.2 ± 1.3 h	5.944 ± 0.022 h	13.8 ± 1 h	5.657 ± 0.043 h	14.4 ± 1.6 h
